{"source": "patent US9023987B2", "about": "“Cell-permeable peptide” (Seoul National University R&DB Foundation, priority 2010, dated 2015)", "key": {"[1]": {"target": "T1, human-derived Smurf1 protein (Homo sapiens, UniProt Q9HCE7)", "T1 construct": "purchased Origene Technologies (Rockville, Md., USA)", "T1 sequence (Q9HCE7 whole entry)": "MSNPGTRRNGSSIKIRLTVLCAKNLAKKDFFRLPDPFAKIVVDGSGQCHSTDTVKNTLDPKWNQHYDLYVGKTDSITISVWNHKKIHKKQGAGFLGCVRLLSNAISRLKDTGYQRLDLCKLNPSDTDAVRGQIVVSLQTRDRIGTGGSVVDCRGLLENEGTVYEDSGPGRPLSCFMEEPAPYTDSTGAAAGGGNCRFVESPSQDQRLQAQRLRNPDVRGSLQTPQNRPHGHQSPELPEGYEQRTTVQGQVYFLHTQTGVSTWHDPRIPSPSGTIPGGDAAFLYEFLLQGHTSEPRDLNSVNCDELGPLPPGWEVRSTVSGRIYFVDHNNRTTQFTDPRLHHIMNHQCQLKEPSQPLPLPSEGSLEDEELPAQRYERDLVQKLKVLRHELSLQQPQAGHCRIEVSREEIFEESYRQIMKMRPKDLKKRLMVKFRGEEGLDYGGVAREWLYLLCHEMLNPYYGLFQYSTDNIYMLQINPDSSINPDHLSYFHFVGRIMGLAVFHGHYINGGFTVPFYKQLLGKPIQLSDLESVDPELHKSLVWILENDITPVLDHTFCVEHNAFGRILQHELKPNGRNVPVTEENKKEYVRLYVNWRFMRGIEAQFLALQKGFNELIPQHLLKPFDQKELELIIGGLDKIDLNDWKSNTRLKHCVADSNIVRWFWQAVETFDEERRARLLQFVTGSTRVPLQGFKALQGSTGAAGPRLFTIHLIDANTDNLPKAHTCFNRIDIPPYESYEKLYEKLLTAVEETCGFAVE", "test": "Affinity to Smurf1 by surface plasmon resonance (BIACORE T100)", "type": "binding", "conditions": "10 mM analyte over Smurf1 coupled to CM5 chip; FIG. 2A", "method": "In order to confirm the affinity between cell permeable peptide-bone differentiation inducing sequence conjugate and Smurf1 by a chemical method, a human-derived Smurf1 protein acting as a ligand in the present experiment was purchased from Origene Technologies (Rockville, Md., USA). The protein ([…]) was coupled to a gold coated surface of a CM5 chip (BIACORE AB, Sweden) on which amino groups are bounded using an EDC/NHS kit (BIACORE AB, Sweden). (Instead of this experimental method, ‘Immobilization’ integrated into the BIACORE® T100 (BIACORE AB, Sweden) software used by the present inventors may be used). In this case, in order to find a suitable pH condition at which the protein may bind to the amino group in the CM5 chip, a method called ‘pH scouting’ was performed, thereby finding a pH condition. As a method of ‘pH scouting’, a method integrated in the BIACORE® T100 (BIACORE AB, Sweden) software used by the present inventors may be used. […]"}, "[2]": {"target": "T1, human-derived Smurf1 protein", "test": "Slot-blot assay of binding to Smurf1", "source_text": "In order to confirm presence or absence of the active site of the cell permeable peptide-bone differentiation inducing sequence conjugate synthesized by the method in Example 1 for binding to Smurf1 and binding degrees according to the concentration, a slot blot assay were used. This experimental method is a molecular biological method of positioning a protein on a membrane and sucking the protein in the other side to strongly attach the protein on a surface of the membrane, directly positioning a material to be confirm an interaction with the attached protein and culturing for a predetermine time to induce the binding, and blotting them using antibodies to confirm the interaction (affinity) between the protein and the material through a difference of each Dot.\n1 μg of human-derived Smurf1 protein was input […] per well using a slot blot device (Hoefer, Pharmacia Biotech, USA) and blotted on a predetermined position on a nitrocellulose membrane (2 μm, Pall, USA) in a vacuum state. After blotting, the nitrocellulose membrane was blocked with phosphate buffer solution containing 0.5% Tween® 20 at room temperature for 30 minutes, and then completely dried. […]"}, "[3]": {"test_system": "human mesenchymal stem cells (hMSC)", "test": "Cell differentiation ability by Alizarin red S staining", "type": "cell-based", "conditions": "10 mM, hard tissue-forming medium, 14 days, compared with PBS; FIG. 4A a-c", "method": "In order to confirm cell differentiation ability of the cell permeable peptide-bone differentiation inducing sequence conjugate by the amount of phosphorylated calcium, human mesenchymal stem cells (hMSC) were seeded in a 24-well plate at 1×10^3/well, and then treated with the cell permeable peptide-bone differentiation inducing sequence conjugate synthesized from Example 1 and the bone differentiation inducing sequence of Comparative Example 2 of […] for each, and then incubated in a hard tissue-forming medium for 14 days. The hard tissue-forming medium contained an MSCBM medium containing 15% FBS (fetal bovine serum), […] of L-ascorbic acid, 10^−7 M dexamethasone, 1% antibiotic-antimycotic solution, and 10 mM beta-glycerol phosphate. After completion of the incubation, the medium was removed, and then the cells were washed with phosphate buffer solution (PBS) twice. The cells were fixed using 90% ethanol at 4° C. for 15 minutes, followed by washing with distilled water twice, and then stained with 2% Alizarin red S Solution (pH 4.2; Alizarin red S powder, Junsei, JAPAN)."}, "[4]": {"test_system": "human mesenchymal stem cells (hMSC)", "test": "Cytotoxicity / cell proliferation by quantitative BrdU assay", "type": "cell-based", "parameters": "dose or concentration left out as unconfirmed", "conditions": "24, 48, and 72 hours, FIG. 6", "method": "In order to confirm whether or not cell proliferation is affected by potential toxicity when the cell permeable peptide-bone differentiation inducing sequence conjugate and control domains are cultured with hMSC, a degree of cell proliferation was analysis by ELISA using BrdU. Since BrdU was introduced in chromosome instead of deoxy thymidine triphosphate (dTTP) at the time of DNA replication during a proliferation process of hMSC, a degree of introduction of BrdU may reflect a degree of proliferation of hMSC.\nFirst, After 1×10^3 human Mesenchymal Stem cells (hMSC) were plated into each well of 96-well plate, the degree of introduction of BrdU, that is, the degree of proliferation of hMSC was measured using a cell proliferation ELISA kit (BrdU (colorimetry); Boehringermanheim, Germany). Simply describing this method, the cells were treated with the cell permeable peptide-bone differentiation inducing sequence conjugate synthesized by the method in Example 1 and the domains of Example 2 at a concentration of […] and cultured in medium for forming hard tissue for 24, 48, and 72 hours. […] of BrdU (5-bromo-2′-deoxyuridine) was added to each of the groups before 24 hours of each culture time and further cultured for 24 hours. […] The reaction was terminated by 1N H2SO4, and then absorbance was measured using the ELISA reader (Bio-Tek, USA) at 450 nm."}}, "data": [{"substance": "NH2-GAPPPADSAP-SSRKKNPNCRRH-C-COONH2 (H-GAPPPADSAPSSRKKNPNCRRHC-NH2; cysteine pairing not given here) [Example 1]", "values": [{"measurement": "affinity to Smurf1", "setting": "[1]", "result": 600, "unit": "RU"}, {"measurement": "concentration at which an increase of dot size began", "setting": "[2]; 0.1, 1, 10, and 100 mM, 4° C., 20 hours, FIG. 2D", "result": 10, "unit": "mM"}, {"measurement": "binding to Smurf1 protein detected as dot", "setting": "[2]; biotinylated domains, slot blot, FIG. 2C", "result": "a dot was confirmed"}, {"measurement": "differentiation into osteoblast, Alizarin red S staining of phosphorylated calcium", "setting": "[3]", "result": "relatively strong staining degree of phosphorylated calcium"}, {"measurement": "effect on cell proliferation (BrdU, DNA synthesis ability compared with PBS)", "setting": "[4]", "result": "did not affect the cell proliferation"}]}]}
